Data reported in the DeepSol protein solubility set.

Assay: soluble on expression in E. coli; label from the status in PepcDB or PDB records

Sequence | soluble on expression in E. coli
MGSDKIHHHHHHMAVKMIKVHGSGNDFYLLDQTQFQAPLSDADLKQLAINICKRDGAGLYDGADGVLVVDKSEHPQVLGRMRVINADGTEASMCGNGLRTVARYLGTQNSQEDFRVQTMYADLKVQAVADFAAHVPAYSVEISPVTFDAQTLGMHANNDATTIINEKIPALSADLKFSAVAVPNPHLIAFVDHDTLVGPELGRIGEWMNDGKNQIFPDGVNVSFVEVLGPNSIFVRTFERGVGFTNACGTAMSASSLMYVLLHQESTDFNQEIHVTNPGGMVKTVVHQGADEEYWMELIGNATFVRIVTLPLEDALQGDYSPVTATETGEQVAYEDFVANLAKA | not soluble
MKTITLYLDPASLPALNQLMDFTQNNEDKTHPRIFGLSRFKIPDNIITQYQNIHFVELKDNRPTEALFTILDQYPGNIELNIHLNIAHSVQLIRPILAYRFKHLDRVSIQQLNLYDDGSMEYVDLEKEENKDISAEIKQAEKQLSHYLLTGKIKFDNPTIARYVWQSAFPVKYHFLSTDYFEKAEFLQPLKEYLAENYQKMDWTAYQQLTPEQQAFYLTLVGFNDEVKQSLEVQQAKFIFTGTTTWEGNTEVREYYAQQQLNLLNHFTQAEGDLFIGDHYKIYFKGHPRGGEINDIILNNAKNITNIPANISFEVLMMTGLLPDKVGGVASSLYFSLPKEKISHIIFTSNKQVKSKEDALNNPYVKVMRRLGIIDESQVIFWDSLKELGGG | soluble
GTGGAAATTYGAACAGGTGAATTTGAAGATATTGCGGGCATTACCGACATCTTTAACTTTTATATTGAACAAACCAATGCACGCTTTGAGGAATTTCCATTTACTCTGGAAAATCGTGAGGAATGGTTCTCTCAGTTTTCTAGAACCGCCAAATATCAAATATATGTGGCTGTAGAAAACGGTGTGTTGCAAGGTTTTGCATGTTCCCAAAAGTACAGAGCAATACCAGCTTTTGATGACACTGTAGAGGTGAGCGTTTATCTGGCACAAGAAGCTAAAGGGAAAGGTTTAGGTTCGAAGCTTTATACTCAGCTGTTTTCATCCATTCGTGCTTATGGCGTCCATCGTATATTGTCGGGTGTTGCATTACCAAATGACGCATCAGTAGCATTACATAAACGGTTTGGTTTCCGAGAAGTCGGCATTTCCAACGAATATGCCAAGAAACATGGGCAGTACATCAGCTCGTTGTGGTTAGAAAAAGCGCTTAACGTAGAGTCCGCTTTATAA | not soluble
MVQQKVEVRLKTGLQARPAALFVQEANRFTSDVFLEKDGKKVNAKSIMGLMSLAVSTGTEVTLIAQGEDEQEALEKLAAYVQEEVLQ | soluble
MSAQAKPRSEMTAEELAAKEDEEFNVGPLSILTNSVKNNHQVLINCRNNKKLLGRVKAFDRHCNMVLENVKEMWTEVPKTGKGKKKAKSVAKDRFISKMFLRGDSVILVVKNPLAQAE | not soluble
MREDVPRAVTTICSALQEQIEHGLLPHGSKLPAERKLSEVFDTTRITLREALLQLEAQGLIYREERRGWFISPPRLAYDLIRRSHFHAMVCAQGRVAHTQLLSARLQPASAMICEMLELPALSSVIQICRARRIDQRLVLYVEHYLRPELFPGILDHDLNESLIELYARCYDVHYGPVRFDVVPTALHADAAAALKVSLGSPGLRIARVNYDRKDRLIDCDLEYWRHDAIHVRAMVRDN | not soluble
MQRLTSARLFKGAFNVGQKRATNASAGAAAVASRPQALPQPHQASTMTPPAAAPAVAAPQASLTRSASLVAPPSTSAPPSGAAPPMPKKKIIRRIIKRKKASAGVATGEAVHRAAAEAVSQTAAPAAPSEPAFAAATGAQPPRRGLAMLNAIRKHPEGSIEEQPQVVTEKHSEEMATAQEQYHEHTHDRHPAIQETEEAHEHHYHHDAASEKVTSSRYNAASAEAETDATGGSDAMDDATSNGSSSSRKTAMVKGYRIDEVGALCSSSDAMFARRLPSGGCQFFAWPGTPLSVASSAIVSMPDTIRTVHAVFGRAGTPIDIVMDIDAQVPQEYWTMSKIRVYQRKVLDDVLTPLKEEIEKIGEEIETQVVLQSPNLKKASFHVHTRLKDAAFADFYSLHGFLFRFQDRLPNVDLQIYRPNGMLRMFSCMKENRTSAIIVFDESKWNIGFPGGKVSDEQAALHSICVRDPSTFSRVLTFEAPRQSNMPAYGGSKGACGDGSEGALRPPQVLLPLTEKEAIESASRWLRQATEVEVGEWRTWIGLGLCAYRVAYHFRNARNLPRPAMAEMLDAWTEASRKCPLKFHSGECEARWAAFDPEKLGSQSDWWSAYKRLGRLEVPMREAMEREAAFAARCASRYQAAPAAEVPFAPEPPQSAAAVGSVTSASRKMKQQKKAFRRA | not soluble
MGSDKIHHHHHHMTPKRFAFVIADLYGGGAEKSLLYTAAGLHQRGHTVKVFILRDRIEQPIPDGVTVENLALINRFSKMFSTPLVEKWQAARIARTLDDFAADVVLSCSCDKITRHLRHPNLWFWIKSDISAKFSDPDQRAKAFAKVHRFYTGRNVVAVSQGVKDNLLDVIGLRPAEIRAIYNPYEREPFLRLAEEPAPVPEGEYLINVGTYEPRKRHDRLLRAYKASGVTTPLVLLGKGKGDEEARLRKMIEDMGLAERVILPGYQTNPYPFIRHAKALILTSDAEGLPRALIESLLLGTPVVSVDCPSGPREILAGELADFLVPREDEAALADAIARMDAAPITVTEAHYRPFLKETVLPQFEALARSA | not soluble
SLQSNILAFTPPAPSASMNVNRTAVVSVTTKDSRAIQEIASYTKHGELIKLNASPSVTQLFQQVMQQNLISKGFRVGQLNGSNAWVTVDVREFGTQVEQGNLRYKLNTKIQATVYVQGAKGSYNKSFNVTHSQEGVFNAGNDEIHKVLSQTFNDIVNNIYQDQEVAAAINQYSN | soluble
MGSSHHHHHHSSGLVPRGSHMKAIALISGGKDSFLSAYIAMQQGFDIVRAMIVRPQEYSYMFHFPNVDKAGYVAGMLGIEPEFVLEDGFQQRVKEYASDGVKAIVSGAIASEFQKTRLERIATEFSIISYTPLWKVDQHRVMRDILDAGIRAMIVSVSAEGFSENDLGREIDDKYLERLYHLEKRYGINITGEGGEYETFVFGFGNKYISVKGHRIWKGSGGYFNIDSVEERPDSC | soluble
MEANKKAKPSYGDVISNLPNDLLCRILSYLSTKEAALTSILSKRWSNLLLSIPILDFDDSVLLKPQKGQRKNVFFKAFVDRLLSQRVETSSHVQRVSLKCRQGGVEPDCVIKWILTTVRDLGVLDLSLCIDFGIFHLPFNVFRSKTLVKLRIGTMIRLSQFPSDVVSPTLNSLVLDLVEFRDGDKVEFRQILLAFPSLQSLRVHESNKWKFWNGSASSRTLKSLVYRSDDDSSAPKPCVSFDTPSLVYLDYSDMVADKYENLKFDSLVEARLDLHLTAFQIMRKPNNIGIVSGDVTTLFKGIRNVKILCLSPDALEALYYRGEKIPMFNNLITLSLGSDKPHGSPFIFWKLLPSLLNNSLKLETLIIKGLVHYVAEGWEGLSPMTPMSRLCFSWDTVSDSLSSSAMKVLEISGYKGTWQELNQMKRFLGNLSRLEVVRVYHKAMDDKERINVMFDLFLLPKVSSECDIQVMKETA | soluble
CPRLIRFVMEEDYANLPPLRRFLRRAGVIPISASNRSSIRRAFNDVEEALNEGHIVCIFPEGRLTSDGEMNDFMRGIDIILRRSPVPVIPMALKGLWGSYFSRAKGRACRGFPTRFWSKLEIEAGEPVDPSSATAQTMFEKVHALRGDWR | not soluble
MGSDKIHHHHHHMLAGFAAAKAPEIDPALVDTLVAQIMQQADRHAEQSQKPDGQAIRNDAVRRLQTLEVLKNRALKEGLDKDKDVQNRFKIAEASFYAEEYVRFLERSETVSESALRQFYERQIRMIKLQQVSFATEEEARQAQQLLLKGLSFEGLMKRYPNDEQAFDGFIMAQQLPEPLASQFAAMNRGDVTRDPVKLGERYYLFKLSEVGKNPDAQPFELVRNQLEQGLRQEKARLKIDAILEENGVKP | not soluble
MSEELLQKFLTSIEQEDGIAEIGKKKKNKSAARRDNVKTILHAASKGQVQLSAEESYIVQKPSTSKGSDYIDDRLASQGFSLIDQARSFKPKDLKKRNLKYMKFQEGRRIDKKKGRILVQAHMQTKQDLKSLRKEKKAIIGVKEPRRLLPGQKKKQKDKSVFSDADFAQVAHVAKRINSMADHSFL | not soluble
MSDFMSNTAALQLLHNAVKSYEREVANFFAANEKATSKYTGRFDFRQFAKKMFDPIPTAQLGQLYIEMLEESHIYMHSHQKSRVGANGYPHSFVSVPELLLNMILAYQLPQQRFVPAEKMEEDGGKVEEDGGAGGAGGSRKKRRNSAARKGKNVTINPRVVLGNELAAKLLEEMLKIPLAPESKQWKTAKYVLCPSSCPQQMEVFGEIIAKNTKSGLISFNALNYFMHDPILNRYLDDPITILHALYIGPLQAPTVELFATNRTDVFRQRCREVLRIALHASKDPMTFTYSVPEFIDKNHPDRCSYRDFVETVTQLIRDLNGEHQGSTAIHTGWACAAIKKFGQKRYVDKTWKDENYYDLIWTVLAQRPHLKKFVVDVLEKNFKDLDAARFWRRMQPYQMNPTVIFNQNVIIVDPLQPTDEFLNFPPTVRHIQMVTNEKEIRDLQMLLEYKVSREEKIYVGVDAEWSAYVSPSKATILQMSLHDCIYIIDLESYQISPQSYHHVLSYLFETPEIVKIGFQFGEDLHQLRAAFRNCVALYRPNNVVCVGKLIMDLMDEIGKLENCDDFRKEWLPHLTDNETSSAANSSVEEQANETIDTNESMDEGDGGGSGIVVKKEESVKQQFLNKGLSFICEKLLGRPLDKTEQCSVWDRRPLRCLQLRYAAMDAYCMLLLYEKCATIFAKLGINVNDFVSKQSPIRISLPLLSEEKL | not soluble
KRTMSISWPLAFSGAFQGSLTGMDNLRFICRIYNVDIDYVKAFTEEFSELGQYLYEPVKRYSSGMKARLAFALSLAVEFDCYLIDEVIAVGDSRFADKCKYELFEKRKDRSIILVSHSHSAMKQYCDNAMVLEKGHMYQFEDMDKAYEYYNSLP | not soluble
MLAPKAFLDALSGHASRLFNGETPVPRSEFETQFKALLQSGFSKLDLVSREEFDSQMAVLARTRARLEALEAKMAELEGKVGGAEKAGSE | not soluble
MHTDINALFAALWQDYIQMTPSAAKVHELLGHGKPIINDHIALRTFNIAKVNLAVLAEHFTSLGYVACGDYKFEQKKLIAKHFEHPDATQPKVFISELLVEEFSSALQSTIQGLIAQVDEQATKADNFIYSGRHWTLDSKTYEALLEESEYAAWVAAFGYRANHFTVSINHLEGFDTLESVNDALKQAGFVLNTSGGEIKGSPEVLLEQSSTMADKIAVEFSDATVEIPSCFYEFALRYPKANGELYTGFVAASADKIFESTNAKKAAAALEHHHHHH | not soluble
